± gives the uncertainty stated by the source.
Assay: amyloid nucleation score (Sup35N fusion, yeast selection) (log enrichment); library NNK1; higher = more nucleation; inactive = no reads after selection
Summary of the method: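 Psi-negative yeast expressed Sup35N fused to peptides of 20 random codons. They were induced 24 hours with 100 μM copper sulfate, grown 7 days at 30°C without adenine and uracil, and their plasmid inserts from input and output were Illumina-sequenced. The nucleation score is the DiMSum log enrichment of output over input reads, centred on the mode score of non-aggregating sequences. Sequences with under 100 input reads were excluded.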

## KFKKFGSSDGLDCDRYILVG
  amyloid nucleation score: -0.799 ± 1.2

## SRTVVTYHQLTWHGVGYMV
  amyloid nucleation score: 0.571 ± 1.2

## TSELFYGTCGKGCPERVGGQ
  amyloid nucleation score: -0.266 ± 1.6

## VKVCSSSMRFNVL
  amyloid nucleation score: 0.689 ± 0.58

## DVIHDICHAVSIIGAWCRDR
  amyloid nucleation score: -0.061 ± 0.3

## YGHCFDFGVRTVLFNGFSLI
  amyloid nucleation score: 1.29 ± 0.84

## QISSTRIDW
  amyloid nucleation score: -0.074 ± 0.32

## FCNRFRCSGSVRWLREVEYM
  amyloid nucleation score: 0.291 ± 0.46

## TIDGSPIGMTTWPVPSFKFS
  amyloid nucleation score: 0.742 ± 0.56

## SLLGPIGIIQTWIPTHLDLF
  amyloid nucleation score: inactive

## CIYSICYFCNS
  amyloid nucleation score: 7.924 ± 0.043

## VGFGQSHGVFRCGVMRLRRG
  amyloid nucleation score: 0.192 ± 1.1

## TAGFPLCYNCYEKP
  amyloid nucleation score: -0.625 ± 0.35

## KTANGNCHENSQSDVFKSVS
  amyloid nucleation score: 0.346 ± 0.31

## GMLNIDSVPDTYGLSQPVVP
  amyloid nucleation score: -0.498 ± 0.57

## CTDPFQDLTRELLLLVCIGL
  amyloid nucleation score: -0.201 ± 0.65

## VTKFLWYIPGPKIGRFYLSN
  amyloid nucleation score: 0.43 ± 0.38

## GSCCVKCDIHI
  amyloid nucleation score: 0.167 ± 0.53

## GISWSRGWSAFLKCDRRTGC
  amyloid nucleation score: 0.894 ± 0.8

## VRAPRSVWRSFAAA
  amyloid nucleation score: -0.107 ± 0.59

## DEPLNTMRSYACWSSDSSHP
  amyloid nucleation score: 0.139 ± 0.48

## AMGSDDE
  amyloid nucleation score: -0.338 ± 1.3

## RSSSDKPSKTTTWRMLAGTG
  amyloid nucleation score: -0.113 ± 0.7

## LNLRGDRN
  amyloid nucleation score: 0.304 ± 0.29

## IWYSVWNSNGFSHSRHGQQR
  amyloid nucleation score: inactive

## NGEIVYASWTCDPSIGRRGK
  amyloid nucleation score: 0.207 ± 0.97

## RLLWRWWRAVDVRGHDRLNL
  amyloid nucleation score: -0.306 ± 1.2

## FVSNGSYVGIS
  amyloid nucleation score: -0.42 ± 0.51

## RFFYWG
  amyloid nucleation score: 0.375 ± 1.2

## RVQCNNMKVCGITIFLMRS
  amyloid nucleation score: 6.516 ± 0.049

## MWVCSYA
  amyloid nucleation score: inactive

## NLTRSVHVMRQVIVQHFIGN
  amyloid nucleation score: 0.424 ± 0.72

## ASVVSCQQSYLRWQEIL
  amyloid nucleation score: -0.316 ± 0.74

## ELERWLDQKGTLQLEDQTLV
  amyloid nucleation score: -0.724 ± 2.4

## SICTCKWYVSVWWAIWRINN
  amyloid nucleation score: 1.59 ± 0.42

## FSHGFMITICHWEMTKETDW
  amyloid nucleation score: -0.476 ± 0.37

## IAHFELMRHNVHLKWVESWL
  amyloid nucleation score: 0.911 ± 0.27

## ELGKKYSLYSLVLAST
  amyloid nucleation score: 0.107 ± 0.67

## LLCFLFTK
  amyloid nucleation score: 3.32 ± 0.15

## MLVHYVAFVFNMSTRCNCSE
  amyloid nucleation score: 6.253 ± 0.046

## QGPVGVSYILHDFIIML
  amyloid nucleation score: 5.94 ± 0.093

## IIVGEFENLYNSAINVK
  amyloid nucleation score: inactive

## GELCMLSVW
  amyloid nucleation score: 0.729 ± 0.79

## SRYQEYRFQMCMMECMRRLA
  amyloid nucleation score: 0.115 ± 1

## ISYSYVTIIA
  amyloid nucleation score: -0.181 ± 0.27

## MTWIENKPLHNVRCRGIIAV
  amyloid nucleation score: -0.12 ± 0.43

## FISAACEEPVTFMGNYGGYG
  amyloid nucleation score: 0.02 ± 0.53

## YGRKISYLKFLKCVDVVLGW
  amyloid nucleation score: 0.303 ± 0.28

## FPSARYNNLT
  amyloid nucleation score: 0.655 ± 0.57

## EPLISCILCKLEGWIPYHI
  amyloid nucleation score: -0.493 ± 0.56

## SWRVCVMFDTL
  amyloid nucleation score: -0.987 ± 1.1

## DYKFRDRL
  amyloid nucleation score: 0.364 ± 0.32

## FIFVIDTRVLRTLINCPTPS
  amyloid nucleation score: -0.047 ± 0.36

## IICLVNMDLCKSR
  amyloid nucleation score: 3.9 ± 0.16

## MVMMFTTDSMQAN
  amyloid nucleation score: 0.906 ± 0.52

## VMTWHL
  amyloid nucleation score: -0.73 ± 0.45

## TFGVVEFSRNRGMSLCETLN
  amyloid nucleation score: 0.386 ± 0.42

## GSALPSIWSWERFRSLLRNL
  amyloid nucleation score: -0.221 ± 0.45

## MLQCYLLFARYLLRNLSWGW
  amyloid nucleation score: 0.59 ± 0.62

## CWPSRQF
  amyloid nucleation score: 0.373 ± 0.94

## HNFKCHLKSCKVSNFN
  amyloid nucleation score: -1.02 ± 2.4

## FFKLKHGNTDRSYIYYVGCA
  amyloid nucleation score: -0.01 ± 0.21

## GYGFFWCDCYRYDRGSRWTG
  amyloid nucleation score: 1.93 ± 0.15

## SLKGFADSVSGSVGLKDKAV
  amyloid nucleation score: 0.502 ± 0.61

## FIGGLHMALYDYPVEGSALA
  amyloid nucleation score: 0.622 ± 0.76

## YGYGY
  amyloid nucleation score: -0.217 ± 0.23

## FCCGSGNSMDMCWFLSIG
  amyloid nucleation score: 6.93 ± 0.079

## KCIDMVFKY
  amyloid nucleation score: 0.143 ± 0.39

## ENRQIWCANGNVVGGTALGV
  amyloid nucleation score: 0.734 ± 0.69

## YMGMLA
  amyloid nucleation score: 2.34 ± 0.12

## DQVISNCRLNMGV
  amyloid nucleation score: -0.369 ± 0.56

## WLNFWILMSVMFVNMSSLFP
  amyloid nucleation score: -1.01 ± 0.52

## GLVRDTTTMNVSLSVMSSAR
  amyloid nucleation score: 1.39 ± 0.84

## FDGMYNDVRTRNVGARYF
  amyloid nucleation score: 0.552 ± 0.64

## NWCVLALIN
  amyloid nucleation score: 1.83 ± 0.43

## IDHSNTIFMSQCRRLSVPE
  amyloid nucleation score: -0.889 ± 1.7

## WLINTPTHWVFVDIVWYWSK
  amyloid nucleation score: 0.051 ± 0.84

## SYLYTVNLFDFYCCRLRGST
  amyloid nucleation score: 3.99 ± 0.1

## TGYGVAVGPFVGGDF
  amyloid nucleation score: -0.548 ± 1.5

## EIIFVRLGANEHWSHNVYVS
  amyloid nucleation score: -0.746 ± 1.2

## WLVVHSQLFSSCNCLKNTVP
  amyloid nucleation score: 0.968 ± 0.35

## YFDVL
  amyloid nucleation score: -0.537 ± 0.48

## CASWTCAEKAEHTMYMEDYP
  amyloid nucleation score: 0.02 ± 0.36

## HLSEFAVGVCEVY
  amyloid nucleation score: 1.27 ± 0.56

## IGAHRNRIWIWYCPVVPNAT
  amyloid nucleation score: 3.1 ± 0.2

## LVVNEFALVNKPDINFCLPQ
  amyloid nucleation score: 4.56 ± 0.092
